Assay results from US20250289897A1 (Eli Lilly, published 2025).
Each block holds one binder with its values, some of them ahead of it.

Tests used:
[1] = target: T1, human LEPR, full length, on HEK293-STAT3Luc-hLepR1 cells (Homo sapiens, UniProt P48357 22-1165); assay: flow cytometry on live HEK293-STAT3Luc-hLepR1 cells, AF647 anti-human IgG; average of 4 runs, SD 1.7
T1 construct: also called human LEPR on live cell surface
T1 sequence: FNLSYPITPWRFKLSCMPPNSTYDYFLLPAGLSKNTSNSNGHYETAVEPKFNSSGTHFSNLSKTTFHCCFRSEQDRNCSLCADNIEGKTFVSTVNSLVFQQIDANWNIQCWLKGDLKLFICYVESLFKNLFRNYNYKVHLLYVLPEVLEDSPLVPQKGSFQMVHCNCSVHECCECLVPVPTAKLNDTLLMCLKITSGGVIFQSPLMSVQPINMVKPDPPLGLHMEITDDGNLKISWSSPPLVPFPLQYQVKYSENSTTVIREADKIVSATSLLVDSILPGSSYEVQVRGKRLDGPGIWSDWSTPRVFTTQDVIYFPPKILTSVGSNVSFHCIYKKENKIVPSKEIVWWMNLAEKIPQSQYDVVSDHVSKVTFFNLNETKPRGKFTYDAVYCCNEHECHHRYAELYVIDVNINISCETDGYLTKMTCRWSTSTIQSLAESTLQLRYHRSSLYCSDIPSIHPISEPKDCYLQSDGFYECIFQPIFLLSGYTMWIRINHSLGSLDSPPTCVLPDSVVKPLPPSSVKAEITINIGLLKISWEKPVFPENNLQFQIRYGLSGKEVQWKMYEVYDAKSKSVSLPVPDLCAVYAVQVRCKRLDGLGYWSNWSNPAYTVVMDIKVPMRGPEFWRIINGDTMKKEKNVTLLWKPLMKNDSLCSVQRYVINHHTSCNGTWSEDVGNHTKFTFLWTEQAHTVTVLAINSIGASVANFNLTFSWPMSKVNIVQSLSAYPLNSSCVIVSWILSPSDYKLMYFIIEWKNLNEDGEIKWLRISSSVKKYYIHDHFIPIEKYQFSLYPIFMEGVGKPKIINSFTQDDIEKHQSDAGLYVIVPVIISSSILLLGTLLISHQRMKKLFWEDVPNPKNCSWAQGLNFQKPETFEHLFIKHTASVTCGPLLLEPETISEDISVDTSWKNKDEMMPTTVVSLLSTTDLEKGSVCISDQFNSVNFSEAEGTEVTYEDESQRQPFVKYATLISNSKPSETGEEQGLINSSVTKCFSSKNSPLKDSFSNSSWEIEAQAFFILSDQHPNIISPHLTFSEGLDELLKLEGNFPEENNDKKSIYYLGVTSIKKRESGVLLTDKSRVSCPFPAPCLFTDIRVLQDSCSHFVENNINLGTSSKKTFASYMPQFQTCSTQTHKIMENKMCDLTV

[2] = target: T2, cynomolgus monkey LEPR, full length, on HEK293-STAT3Luc-cmLepR2 cells (Macaca fascicularis); assay: flow cytometry on live HEK293-STAT3Luc-cmLepR2 cells, AF647 anti-human IgG; average of 4 runs, SD 0.7
T2 construct: whole, on cells; also called cyno-LEPR; Macaca fascicularis LEPR

[3] = target: T1, human LEPR, full length, on …; assay: flow cytometry on live HEK293-STAT3Luc-hLepR1 cells, AF647 anti-human IgG; average of 4 runs, SD 7.1
human LEPR-ECD-His [4] = target: T3, human LEPR-ECD-His (human, UniProt P48357 22-839); assay: SPR (Biacore T200), antibody captured on Protein A/G chip, His-tagged LEPR-ECD as analyte, 1:1 fit; mean n=3, SD 6.8E-9
T3 sequence: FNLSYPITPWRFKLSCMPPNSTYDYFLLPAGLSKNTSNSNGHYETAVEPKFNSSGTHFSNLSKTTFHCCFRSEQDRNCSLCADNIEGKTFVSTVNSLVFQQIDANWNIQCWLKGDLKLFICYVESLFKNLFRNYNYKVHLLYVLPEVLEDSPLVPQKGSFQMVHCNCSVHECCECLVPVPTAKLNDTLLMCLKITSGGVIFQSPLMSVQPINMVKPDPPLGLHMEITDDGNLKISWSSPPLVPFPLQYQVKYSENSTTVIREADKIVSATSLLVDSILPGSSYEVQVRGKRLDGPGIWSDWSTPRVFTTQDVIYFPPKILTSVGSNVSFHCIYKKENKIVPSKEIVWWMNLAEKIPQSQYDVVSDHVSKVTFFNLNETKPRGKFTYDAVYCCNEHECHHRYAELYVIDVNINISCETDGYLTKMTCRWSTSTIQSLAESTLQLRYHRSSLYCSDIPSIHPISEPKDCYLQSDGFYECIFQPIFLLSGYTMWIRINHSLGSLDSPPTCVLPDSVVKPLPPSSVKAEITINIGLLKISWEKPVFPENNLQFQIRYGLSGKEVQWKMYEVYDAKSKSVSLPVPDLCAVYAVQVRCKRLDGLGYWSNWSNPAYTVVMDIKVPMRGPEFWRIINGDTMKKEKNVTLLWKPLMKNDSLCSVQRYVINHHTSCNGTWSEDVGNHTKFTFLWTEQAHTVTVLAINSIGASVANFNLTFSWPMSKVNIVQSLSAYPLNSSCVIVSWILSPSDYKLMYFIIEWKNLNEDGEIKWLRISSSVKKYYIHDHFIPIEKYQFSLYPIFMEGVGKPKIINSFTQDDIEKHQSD

[5] = target: T1, human LEPR, full length, on …; assay: flow cytometry on live HEK293-STAT3Luc-hLepR1 cells, AF647 anti-human IgG; average of 4 runs, SD 1.0
human LEPR-ECD-His [6] = target: T3, human LEPR-ECD-His; assay: SPR (Biacore T200), antibody captured on Protein A/G chip, His-tagged LEPR-ECD as analyte, 1:1 fit; mean n=3, SD 7.1E-9
[7] = target: T2, cynomolgus monkey LEPR, full length, on …; assay: flow cytometry on live HEK293-STAT3Luc-cmLepR2 cells, AF647 anti-human IgG; average of 4 runs, SD 0.6

EC50 [1]: 2.45 nM
EC50 [2]: 0.74 nM
B1: Antibody A (antibody, human IgG1, kappa, L234A L235A)
heavy: EVQLLESGGGLVQPGGSLRLSCAASGFTFSSFAMSWVRQAPGKGLEWVSAISGSGGSTYSADSVRGRFTISRDNSKNTLYLQMNSLRAEDTAVYYCAKDQGDWDFLFDYWGQGTLVTVSSASTKGPSVFPLAPSSKSTSGGTAALGCLVKDYFPEPVTVSWNSGALTSGVHTFPAVLQSSGLYSLSSVVTVPSSSLGTQTYICNVNHKPSNTKVDKRVEPKSCDKTHTCPPCPAPEAAGGPSVFLFPPKPKDTLYITREPEVTCVVVSVSHEDPEVKFNWYVDGVEVHNAKTKPREEQYNSTYRVVSVLTVLHQDWLNGKEYKCKVSNKALPAPIEKTISKAKGQPREPQVYTLPPSREEMTKNQVSLTCLVKGFYPSDIAVEWESNGQPENNYKTTPPVLDSDGSFFLYSKLTVDKSRWQQGNVFSCSVMHEALHNHYTQKSLSLSPGK
light: DIQMTQSPSFLSASVGDRVTITCRASQGISSSLAWYQQKPGKAPKLLIYTASTLQSGVPSRFSGSGSGTEFTLTISSLQPEDFATYYCQQLIYYPFTFGQGTKVEIKRTVAAPSVFIFPPSDEQLKSGTASVVCLLNNFYPREAKVQWKVDNALQSGNSQESVTEQDSKDSTYSLSSTLTLSKADYEKHKVYACEVTHQGLSSPVTKSFNRGEC
notes: IgG1 mAb

EC50 [3]: 13.6 nM
Kd (human LEPR-ECD-His [4]): 22 nM
B2: Antibody B (antibody, human IgG1, kappa, L234A L235A, V domains shown)
VH: EVQLLESGGGLVQPGGSLRLSCAASGFTFSSFAMSWVRQAPGKGLEWVSAISGSGGSTYSADSVRGRFTISRDNSKNTLYLQMNSLRAEDTAVYYCAKDQGDWDFLFDYWGQGTLVTVSS
VL: DIQMTQSPSFLSASVGDRVTITCRVSQGISSSLAWYQQKPGKAPKLLIYTASTLQSGVPSRFSGSGSGTEFTLTISSLQPEDFATYYCQQLNYYPFTFGQGTKVEIKR

EC50 [5]: 1.33 nM
Kd (human LEPR-ECD-His [6]): 26 nM
EC50 [7]: 0.83 nM
B3: Antibody C (antibody, human IgG1, kappa, L234A L235A, V domains shown)
VH: EVQLLESGGGLVQPGGSLRLSCAASGFTFSSFAMSWVRQAPGKGLEWVSAISGSGGSTYSADSVRGRFTISRDNSKNTLYLQMNSLRAEDTAVYYCAKDQGDWDFLFDYWGQGTLVTVSS
VL: DIQMTQSPSFLSASVGDRVTITCRASQGISSSLAWYQQKPGKAPKLLIYTASTLQSGVPSRFSGSGSGTEFTLTISSLQPEDFATYYCQQLNYYPFSFGQGTKVEIKR
